Earlier results in PMC7149769.
pKd: −log10 of the molar value.

Assays:
Factor Xa (Homo sapiens) = Factor Xa (Homo sapiens) (UniProt P00742)
Factor X (Homo sapiens) = Factor X (Homo sapiens) (UniProt P00742)

Question: With Factor Va (from UniProt P12259) as the substance, how does the pKd (Factor Xa (Homo sapiens)) read?
Answer: 9.00

Question: With Mac-1 (from UniProt P11215) as the substance, how does the pKd (Factor X (Homo sapiens)) read?
Answer: 7.52
